This is an account of results in patent publication CN106905431A (XUHUA (SHANGHAI) BIOLOGICAL RES AND DEV CENTER CO LTD, dated 2017).

The target in assay [1] is T1, 人补体D因子 (human complement Factor D) (human, UniProt P00746 26-253).
T1 construct: Bought protein; also called 人D因子; human CFD
The experiment in a line: SPR (Biacore T200), Fab captured on CM5 chip. (In general: SPR reads the build-up and loss of mass on a sensor chip optically.)

In assay [2] the target is T1, 人补体D因子 (human complement Factor D). Briefly: SPR (Biacore T200), full-length antibody captured by anti-human IgG Fc on CM5, antigen in flow, 1:1 model.
Assay [3] has the same target. The experiment in a line: ELISA on coated human Factor D and BLI. In general terms: In an ELISA, binding on a coated surface is turned into a signal by an enzyme label.

T1 sequence (P00746 26-253 limits assumed): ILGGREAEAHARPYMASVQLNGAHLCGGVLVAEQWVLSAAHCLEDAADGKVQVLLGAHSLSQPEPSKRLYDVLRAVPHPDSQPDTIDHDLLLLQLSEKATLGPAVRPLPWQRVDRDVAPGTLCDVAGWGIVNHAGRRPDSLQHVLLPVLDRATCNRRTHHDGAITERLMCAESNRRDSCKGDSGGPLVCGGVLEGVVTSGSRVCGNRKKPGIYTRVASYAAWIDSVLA

B1: 人源化Fab克隆 AS01237 (Fab, V domains shown)
VH: EVQLVQSGAEVKKPGASVKVSCKASGYTFTSYVINWVRQAPGQGLEWMGYINPYIDDSEYNEKFEGRVTMTRNTSISTAYMELSSLRSEDTAVYYCAREGPAFAYWGQGTLVTVSS
VL: DIVMTQTPLSLSVTPGQPASISCRSSQNLVHSNGDTYLEWYQQKPGQPPKLLIYKVSTRFSGVPDRFSGSGSGTDFTLKISRVEAEDVGVYYCFQGSHVPPTFGQGTKVEIK
notes: Fab fragment with a SASA tag, as screened on Biacore; also called AS01237 Fab
For the molecule B1, in assay [1], the binding result is “binds”.

B2: 人源化Fab克隆 AS01326 (Fab, V domains shown)
VH: QVQLVQSGSELKKPGASVKVSCKASGYTFTSYVINWVRQMPGKGLEWMGYINPYIDDSEYNEKFEGRVTMTRDTSISTAYMELSRLRSDDTAVYYCAREGPAFAYWGQGTLVTVSS
VL: DVVMTQSPLSLPVTLGQPASISCRSSQNLVHSNGDTYLEWYLQKPGQPPQLLIYKVSTRFSGVPDRFSGSGSGTDFTLKISRVEAEDFGVYYCFQGSHVPPTFGQGTKVEIK
notes: Fab fragment with a SASA tag, as screened on Biacore; also called AS01326 Fab
For B2, in assay [1], the binding result was “binds”.

B3: 抗人D因子人源化抗体 AS01326 (全长抗体) (antibody, V domains shown)
VH: QVQLVQSGSELKKPGASVKVSCKASGYTFTSYVINWVRQMPGKGLEWMGYINPYIDDSEYNEKFEGRVTMTRDTSISTAYMELSRLRSDDTAVYYCAREGPAFAYWGQGTLVTVSS
VL: DVVMTQSPLSLPVTLGQPASISCRSSQNLVHSNGDTYLEWYLQKPGQPPQLLIYKVSTRFSGVPDRFSGSGSGTDFTLKISRVEAEDFGVYYCFQGSHVPPTFGQGTKVEIK
notes: Full-length antibody from pTT5 in HEK293, protein A purified, captured by anti-human IgG Fc
B3: the binding result in assay [2] was “binds”.

B4: 抗人D因子人源化抗体 AS01237 (全长抗体) (antibody, V domains shown)
VH: EVQLVQSGAEVKKPGASVKVSCKASGYTFTSYVINWVRQAPGQGLEWMGYINPYIDDSEYNEKFEGRVTMTRNTSISTAYMELSSLRSEDTAVYYCAREGPAFAYWGQGTLVTVSS
VL: DIVMTQTPLSLSVTPGQPASISCRSSQNLVHSNGDTYLEWYQQKPGQPPKLLIYKVSTRFSGVPDRFSGSGSGTDFTLKISRVEAEDVGVYYCFQGSHVPPTFGQGTKVEIK
notes: as for B3
For the molecule B4, the binding result in assay [2] was “binds”.

B5: 人源化Fab克隆 AS01328 (Fab, V domains shown)
VH: QVQLVQSGSELKKPGASVKVSCKASGYTFTSYVINWVRQATGQGLEWMGYINPYIDDSEYNEKFEGRVTMTRDTSTSTVYMELSSLRSEDTAVYYCAREGPAFAYWGQGTLVTVSS
VL: DIVMTQTPLSLSVTPGEPASISCRSSQNLVHSNGDTYLEWYLQKPGQAPRLLIYKVSTRFSGVPDRFSGSGSGTDFTLKISRVEAEDVGVYYCFQGSHVPPTFGQGTKVEIK
notes: Fab fragment with a SASA tag, as screened on Biacore; also called AS01328 Fab
As to B5, in assay [1], the binding result is “binds”.

B6: 抗人D因子人源化抗体 AS01328 (全长抗体) (antibody, V domains shown)
VH: QVQLVQSGSELKKPGASVKVSCKASGYTFTSYVINWVRQATGQGLEWMGYINPYIDDSEYNEKFEGRVTMTRDTSTSTVYMELSSLRSEDTAVYYCAREGPAFAYWGQGTLVTVSS
VL: DIVMTQTPLSLSVTPGEPASISCRSSQNLVHSNGDTYLEWYLQKPGQAPRLLIYKVSTRFSGVPDRFSGSGSGTDFTLKISRVEAEDVGVYYCFQGSHVPPTFGQGTKVEIK
notes: as for B3
On to B6, for which the binding result in assay [2] is recorded as “binds”.

B7: 抗人D因子鼠源单克隆抗体 Mab25 (antibody, V domains shown)
VH: AVQLQQSGPELVKPGASVKMSCKASGYTFTSYVINWMKQKPGQGLEWIGYINPYIDDSEYNEKFEGKATLTSDKTSSIAYMELSSLTSEDSAVYYCAREGPAFAYWGQGTLVTVSA
VL: DILLTQTPLSLPVSLGDHASVSCRSSQNLVHSNGDTYLEWYLQKPGQSPKLLIYKVSTRFSGVPDRFSGSGSGTDFTLKISRVEAEDLGVYYCFQGSHVPPTFGGGTKLEIK
notes: Mouse hybridoma antibody; The heavy chain was cloned with a primer for the mouse IgG1 constant region; also called 杂交瘤细胞株25
For the molecule B7, in assay [3], the binding result is “binds”.

B8: 抗人D因子嵌合抗体 (Mab25的嵌合抗体, 全长) (antibody, V domains shown)
VH: AVQLQQSGPELVKPGASVKMSCKASGYTFTSYVINWMKQKPGQGLEWIGYINPYIDDSEYNEKFEGKATLTSDKTSSIAYMELSSLTSEDSAVYYCAREGPAFAYWGQGTLVTVSA
VL: DILLTQTPLSLPVSLGDHASVSCRSSQNLVHSNGDTYLEWYLQKPGQSPKLLIYKVSTRFSGVPDRFSGSGSGTDFTLKISRVEAEDLGVYYCFQGSHVPPTFGGGTKLEIK
notes: Chimeric form of Mab25 (mouse variable regions on human constant regions), compared with the humanised antibodies in the Biacore assay
For the molecule B8, in assay [2], the binding result is listed as “binds”.
